Test results published in patent EP1473042A1 (City of Hope, dated 2004).
Numbering of substitutions follows the chain as printed.

T1: rat FXR (farnesoid X-activated receptor), full-length (rat, UniProt Q62735 1-469)
T1 construct: mature; in vitro translated for the mobility shift assays; also called bile acid nuclear receptor; BAR
T1 sequence (looked up): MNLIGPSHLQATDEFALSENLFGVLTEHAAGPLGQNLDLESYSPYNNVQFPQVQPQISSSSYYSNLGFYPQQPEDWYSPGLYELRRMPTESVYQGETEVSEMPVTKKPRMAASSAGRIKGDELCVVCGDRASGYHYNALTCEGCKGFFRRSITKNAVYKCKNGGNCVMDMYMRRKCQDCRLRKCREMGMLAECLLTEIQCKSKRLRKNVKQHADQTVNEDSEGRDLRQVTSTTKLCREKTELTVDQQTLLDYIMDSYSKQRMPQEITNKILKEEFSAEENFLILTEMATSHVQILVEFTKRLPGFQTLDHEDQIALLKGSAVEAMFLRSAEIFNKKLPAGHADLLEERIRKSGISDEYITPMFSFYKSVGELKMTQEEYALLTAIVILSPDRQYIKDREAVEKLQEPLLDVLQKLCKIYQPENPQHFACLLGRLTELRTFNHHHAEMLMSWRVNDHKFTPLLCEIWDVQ

B1: RXRm, human RXRα with the single point mutation Asp 322→Pro in the ligand binding domain (receptor, UniProt P19793 1-462, looked up)
chain: MDTKHFLPLDFSTQVNSSLTSPTGRGSMAAPSLHPSLGPGIGSPGQLHSPISTLSSPINGMGPPFSVISSPMGPHSMSVPTTPTLGFSTGSPQLSSPMNPVSSSEDIKPPLGLNGVLKVPAHPSGNMASFTKHICAICGDRSSGKHYGVYSCEGCKGFFKRTVRKDLTYTCRDNKDCLIDKRQRNRCQYCRYQKCLAMGMKREAVQEERQRGKDRNENEVESTSSANEDMPVERILEAELAVEPKTETYVEANMGLNPSSPNDPVTNICQAADKQLFTLVEWAKRIPHFSELPLDDQVILLRAGWNELLIASFSHRSIAVKPGILLATGLHVHRNSAHSAGVGAIFDRVLTELVSKMRDMQMDKTELGCLRAIVLFNPDSKGLSNPAEVEALREKVYASLEAYCKHKYPEQPGRFAKLLLRLPALRSIGLKCLEHLFFFKLIGDTPIDTFLMEMLEAPHQMT
notes: mature; also called mutant RXR; RXR mutant
B2: human RXRα (9-cis retinoic acid receptor), full-length, wild type (receptor, UniProt P19793 1-462, looked up)
chain: B1 chain with P322D
notes: mature; also called wild-type RXR
B3: GST-GRIP1 (glutathione-S-transferase fused to the three receptor interaction domains of mouse GRIP1, Arg 625 - Lys 765) (other, UniProt Q61026 625-765, looked up)
chain: RAEGHSRLHDSKGQTKLLQLLTTKSDQMEPSPLPSSLSDTNKDSTGSLPGPGSTHGTSLKEKHKILHRLLQDSSSPVDLAKLTAEATGKELSQESSSTAPGSEVTVKQEPASPKKKENALLRYLLDKDDTKDIGLPEITPK
notes: range 625-765; Expressed in E. coli, purified on glutathione-sepharose; also called CoA; not shown: glutathione-S-transferase (GST)

Columns and labels:
[1] = molecular target: GST-GRIP1 (glutathione-S-transferase fused to the three receptor interaction domains of mouse GRIP1, Arg 625 - Lys 765) (mouse) (UniProt Q61026); experiment: phosphorimager quantitation of the mobility shift autoradiogram (Figure 4)
[2] = molecular target: T1, rat FXR (farnesoid X-activated …); experiment: DNA binding as heterodimer (Figure 5 and data not shown)
[3] = molecular target: GST-GRIP1 (glutathione-S-transferase fused to the three receptor interaction domains of mouse GRIP1, Arg 625 - Lys 765) (mouse) (UniProt Q61026); experiment: electrophoretic mobility shift, DR1 probe, 5 µg GST-GRIP1, LG268 0-1000 nM
[4] = molecular target: T1, rat FXR (farnesoid X-activated …); experiment: electrophoretic mobility shift, hsp27 EcRE probe, in vitro translated FXR + RXR
[5] = molecular target: B2; experiment: electrophoretic mobility shift, DR1 probe, increasing LG268

Binder: B1
fold higher concentration of ligand (LG268) required for recruitment of coactivator, against wild-type RXR [1]: 100 fold | binding result [2]: binds | fold decrease in potency of coactivator recruitment compared to wild type RXR [3]: 100 fold

Binder: B2
binding result [4]: binds

Binder: B3
binding result [5]: binds
